The values that follow come from patent publication US20220047715A1, “FORCE-DEPENDENT DRUG RELEASE SYSTEM TO ENHANCE SELECTIVE KILLING AND MINIMIZE ADVERSE EFFECTS IN CANCER TREATMENT” (THE JOHNS HOPKINS UNIVERSITY, priority 2018, published 2022).

The subject of series [1] is CTLA4-CD80 bond. The experiment in a line: Micropillar-based measurement for CTLA4-CD80 tension. Type of series: cell-based, human. The conditions noted are these: cancer cells on micropillars, FIG. 3b. The protocol:
FIG. 3: Micropillar-based measurement for CTLA4-CD80 tension. (a) A cancer cell is cultured on micropillars. The forces transmitted to the CTLA4-CD80 bond bend the micropillars. (b) Cancer cells can generate ˜2-fold higher stress than normal cells. […] (c) Cancer cells generate 4-fold higher stress transmitted to the CTLA4-CD80 bond compared to integrin-fibronectin bond. Scale bar: 5 μm.
To determine which of the two possibilities described above is likely to be true, we measured the forces CTLA4 exerts on the CD80 upon binding in both normal cells and breast cancer cells. Since trans-endocytosis requires high forces to physically remove CD80 from the cell membrane of the APC, followed by internalization, we tested whether cancer cells yield higher forces if trans-endocytosis is the unique mechanism used by cancer cells to achieve immunosuppression. We tested the human breast cancer cells MDA-MB-231 and their normal counterpart MCF10A cells, as well as the mouse breast cancer cells EO771 and their normal counterpart EPH4-EV, all of which express CTLA4 (FIG. 1). […] We also measured the forces transmitted via CTLA4 in Treg cells purified from mouse spleens. […] Moreover, when HEK293 cells, in which endogenous CTLA4 is not detected, were transfected with CTLA4 cDNA, only minimal level of forces and no trans-endocytosis of CD80 could be recorded (FIG. 2 panel c).

For series [2] the following is noted: cited from earlier work.

As for `Cc1ccc2c(c1)C(=O)C1(O)CCN(c3ccccc3)C1=N2` (stereo not drawn) [Blebbistatin], the “force generation transmitted through the CTLA4-CD80 bond” value in series [1] is given as “does not inhibit”.

With Ipilimumab, in series [2] (Ipilimumab alone, 81 reports, 1265 patients, 22 clinical trials), the “patients experiencing skin lesions, colitis, hepatitis, hypophysitis, thyroiditis and other immune-related events” value is 72%. The “patients experiencing adverse events” value in series [2] (one study) was 85%.
